± gives the standard deviation of the averaged measurements.

Twelve sequences from the supplement of paper PMC11246515 can be followed below.

The nature of the series: total protein half-life in vivo (active degradation + dilution); higher = more stable protein.
Setting [1] is: E. coli NCM3722 delta-clpP delta-lon delta-hslV, growth: N-lim chemostat, doubling time 6 h.
The mark [2] stands for this setting: E. coli NCM3722 delta-clpP, growth: N-lim chemostat, doubling time 6 h.
The mark [3] stands for this setting: E. coli NCM3722 delta-hslV, growth: N-lim chemostat, doubling time 6 h.
The mark [4] stands for this setting: E. coli NCM3722 delta-lon, growth: N-lim chemostat, doubling time 6 h.
[5] abbreviates: E. coli NCM3722 delta-smpB, growth: N-lim chemostat, doubling time 6 h.
[6] abbreviates: wild type E. coli NCM3722, growth: C-lim chemostat, doubling time 3 h.
The mark [7] stands for this setting: wild type E. coli NCM3722, growth: C-lim chemostat, doubling time 6 h.
[8] abbreviates: wild type E. coli NCM3722, growth: C-lim chemostat, doubling time 12 h.
Setting [9] is: wild type E. coli NCM3722, growth: N-lim chemostat, doubling time 6 h.
Setting [10] is: wild type E. coli NCM3722, growth: N-lim chemostat, doubling time 12 h.
The mark [11] stands for this setting: wild type E. coli NCM3722, growth: P-lim chemostat, doubling time 6 h.
[12] abbreviates: wild type E. coli NCM3722, growth: P-lim chemostat, doubling time 12 h.

For “MNPIVINRLQRKLGYTFNHQELLQQALTHRSASSKHNERLEFLGDSILSYVIANALYHRFPRVDEGDMSRMRATLVRGNTLAELAREFELGECLRLGPGELKSGGFRRESILADTVEALIGGVFLDSDIQTVEKLILNWYQTRLDEISPGDKQKDPKTRLQEYLQGRHLPLPTYLVVQVRGEAHDQEFTIHCQVSGLSEPVVGTGSSRRKAEQAAAEQALKKLELE [P0A7Y0]”, the “total protein half-life in vivo” value under setting [1] amounted to 5.33 ± 0.47 h; the “total protein half-life in vivo” value under setting [2] was 4.64 ± 0.1 h; the “total protein half-life in vivo” value under setting [3] was found to be 5.21 ± 0.87 h; the “total protein half-life in vivo” value under setting [4] was 5.08 ± 0.24 h; the “total protein half-life in vivo” value under setting [5] turned out to be 4.72 ± 0.15 h; the “total protein half-life in vivo” value under setting [6] was determined as 2.85 ± 0.21 h. The “total protein half-life in vivo” value under setting [7] was 5.54 ± 0.24 h; the “total protein half-life in vivo” value under setting [8] was determined as 8.37 ± 0.68 h; the “total protein half-life in vivo” value under setting [9] was found to be 4.85 ± 0.54 h; the “total protein half-life in vivo” value under setting [10] turned out to be 7.78 ± 0.17 h; the “total protein half-life in vivo” value under setting [11] was 5.51 ± 0.21 h; the “total protein half-life in vivo” value under setting [12] was determined as 11.4 ± 0.34 h.
Regarding “MYDFVIIGGGIIGMSTAMQLIDVYPDARIALLEKESAPACHQTGHNSGVIHAGVYYTPGSLKAQFCLAGNRATKAFCDQNGIRYDNCGKMLVATSDLEMERMRALWERTAANGIEREWLNADELREREPNITGLGGIFVPSSGIVSYRDVTAAMAKIFQSRGGEIIYNAEVSGLNEHKNGVVIRTRQGGEYEASTLISCSGLMADRLVKMLGLEPGFIICPFRGEYFRLAPEHNQIVNHLIYPIPDPAMPFLGVHLTRMIDGSVTVGPNAVLAFKREGYRKRDFSFSDTLEILGSSGIRRVLQNHLRSGLGEMKNSLCKSGYLRLVQKYCPRLSLSDLQPWPAGVRAQAVSPDGKLIDDFLFVTTPRTIHTCNAPSPAATSAIPIGAHIVSKVQTLLASQSNPGRTLRAARSVDALHAAFNQ”, the “total protein half-life in vivo” value was found to be 5.44 ± 0.2 h under setting [1]; 6.32 ± 1.6 h under setting [2]; 5.3 ± 0.37 h under setting [3]; 4.94 ± 0.065 h under setting [4]; 4.58 ± 0.47 h under setting [5]; 2.7 ± 0.3 h under setting [6]. Moreover, the “total protein half-life in vivo” value runs as follows: under setting [7], 5.48 ± 0.23 h; under setting [8], 9.35 ± 0.39 h; under setting [9], 5.4 ± 0.44 h; under setting [10], 9.37 ± 0.29 h; under setting [11], 4.51 ± 0.93 h; under setting [12], 10.8 ± 0.21 h.
Regarding “MKNVFKALTVLLTLFSLTGCGLKGPLYFPPADKNAPPPTKPVETQTQSTVPDKNDRATGDGPSQVNY [P0ADN6]”, the “total protein half-life in vivo” value by setting is: under setting [1], 5.56 ± 0.35 h; under setting [2], 5.27 ± 1.1 h; under setting [3], 6.91 ± 1.1 h; under setting [4], 6.29 ± 0.95 h; under setting [5], 6.35 ± 0.59 h; under setting [6], 2.95 ± 0.47 h. Further, the “total protein half-life in vivo” value under setting [7] came out at 5.25 ± 1.2 h, the “total protein half-life in vivo” value under setting [8] is > 16 h, the “total protein half-life in vivo” value under setting [9] is 6.03 ± 1.2 h and the “total protein half-life in vivo” value under setting [12] was determined as 11.8 ± 0.15 h.
Turning to “MPYLLEMKNITKTFGSVKAIDNVCLRLNAGEIVSLCGENGSGKSTLMKVLCGIYPHGSYEGEIIFAGEEIQASHIRDTERKGIAIIHQELALVKELTVLENIFLGNEITHNGIMDYDLMTLRCQKLLAQVSLSISPDTRVGDLGLGQQQLVEIAKALNKQVRLLILDEPTASLTEQETSILLDIIRDLQQHGIACIYISHKLNEVKAISDTICVIRDGQHIGTRDAAGMSEDDIITMMVGRELTALYPNEPHTTGDEILRIEHLTAWHPVNRHIKRVNDVSFSLKRGEILGIAGLVGAGRTETIQCLFGVWPGQWEGKIYIDGKQVDIRNCQQAIAQGIAMVPEDRKRDGIVPVMAVGKNITLAALNKFTGGISQLDDAAEQKCILESIQQLKVKTSSPDLAIGRLSGGNQQKAILARCLLLNPRILILDEPTRGIDIGAKYEIYKLINQLVQQGIAVIVISSELPEVLGLSDRVLVMHEGKLKANLINHNLTQEQVMEAALRSEHHVEKQSV”, the “total protein half-life in vivo” value by setting is: under setting [6], 2.9 ± 0.53 h; under setting [8], 7.37 ± 2.8 h; under setting [12], 9.14 h.
As to “MQTPHILIVEDELVTRNTLKSIFEAEGYDVFEATDGAEMHQILSEYDINLVIMDINLPGKNGLLLARELREQANVALMFLTGRDNEVDKILGLEIGADDYITKPFNPRELTIRARNLLSRTMNLGTVSEERRSVESYKFNGWELDINSRSLIGPDGEQYKLPRSEFRAMLHFCENPGKIQSRAELLKKMTGRELKPHDRTVDVTIRRIRKHFESTPDTPEIIATIHGEGYRFCGDLED [P0A9Q1]”, the “total protein half-life in vivo” value is, setting by setting: under setting [1], 5.53 ± 0.35 h; under setting [2], 5.61 ± 1 h; under setting [3], 4.95 ± 0.086 h; under setting [4], 5.76 ± 0.36 h; under setting [5], 4.87 ± 0.05 h; under setting [6], 2.73 ± 0.069 h. Further, the “total protein half-life in vivo” value under setting [7] worked out at 5.78 ± 0.19 h; the “total protein half-life in vivo” value under setting [8] was 9.44 ± 1.7 h; the “total protein half-life in vivo” value under setting [9] was found to be 4.76 ± 0.39 h; the “total protein half-life in vivo” value under setting [10] stood at 8.14 ± 0.24 h; the “total protein half-life in vivo” value under setting [11] was found to be 5.18 ± 0.058 h; the “total protein half-life in vivo” value under setting [12] is 10.3 ± 0.2 h.
On to “MRVLIKNGTVVNADGQAKQDLLIESGIVRQLGNNISPQLPYEEIDATGCYVFPGGVDVHTHFNIDVGIARSCDDFFTGTRAAACGGTTTIIDHMGFGPNGCRLRHQLEVYRGYAAHKAVIDYSFHGVIQHINHAILDEIPMIVEEGLSSFKLYLTYQYKLNDDEVLQALRRLHESGALTTVHPENDAAIASKRAEFIAAGLTAPRYHALSRPLECEAEAIARMINLAQIAGNAPLYIVHLSNGLGLDYLRLARANHQPVWVETCPQYLLLDERSYDTEDGMKFILSPPLRNVREQDKLWCGISDGAIDVVATDHCTFSMAQRLQISKGDFSRCPNGLPGVENRMQLLFSSGVMTGRITPERFVELTSAMPARLFGLWPQKGLLAPGSDGDVVIIDPRQSQQIQHRHLHDNADYSPWEGFTCQGAIVRTLSRGETIFCDGTFTGKAGRGRFLRRKPFVPPVL”, for which the “total protein half-life in vivo” value by setting is: under setting [6], > 4 h; under setting [12], 12.1 h.
In the case of “MTITSLDGYRWLKNDIIRGNFQPDEKLRMSLLTSRYALGVGPLREALSQLVAERLVTVVNQKGYRVASMSEQELLDIFDARANMEAMLVSLAIARGGDEWEADVLAKAHLLSKLEACDASEKMLDEWDLRHQAFHTAIVAGCGSHYLLQMRERLFDLAARYRFIWLRRTVLSVEMLEDKHDQHQTLTAAVLARDTARASELMRQHLLTPIPIIQQAMAGN”, the “total protein half-life in vivo” value is 5.31 ± 0.62 h under setting [1]; 2.81 ± 0.13 h under setting [2]; 2.106 ± 0.011 h under setting [3]; 3.54 ± 0.24 h under setting [4]; 2.18 ± 0.088 h under setting [5]; 1.96 ± 0.16 h under setting [6]. For the same sequence, the “total protein half-life in vivo” value stood at 3.69 ± 0.43 h under setting [7]; 5.04 ± 0.48 h under setting [8]; 1.99 ± 0.21 h under setting [9]; 2.52 ± 0.064 h under setting [10]; 1.56 h under setting [11]; 3.14 ± 1.1 h under setting [12].
Turning to “MSHNVTPNTSRVELRKTLTLVPVVMMGLAYMQPMTLFDTFGIVSGLTDGHVPTAYAFALIAILFTALSYGKLVRRYPSAGSAYTYAQKSISPTVGFMVGWSSLLDYLFAPMINILLAKIYFEALVPSIPSWMFVVALVAFMTAFNLRSLKSVANFNTVIVVLQVVLIAVILGMVVYGVFEGEGAGTLASTRPFWSGDAHVIPMITGATILCFSFTGFDGISNLSEETKDAERVIPRAIFLTALIGGMIFIFATYFLQLYFPDISRFKDPDASQPEIMLYVAGKAFQVGALIFSTITVLASGMAAHAGVARLMYVMGRDGVFPKSFFGYVHPKWRTPAMNIILVGAIALLAINFDLVMATALINFGALVAFTFVNLSVISQFWIREKRNKTLKDHFQYLFLPMCGALTVGALWVNLEESSMVLGLIWAAIGLIYLACVTKSFRNPVPQYEDVA [P0AA47]”, the “total protein half-life in vivo” value under setting [6] was determined as 0.699 ± 0.063 h.
In the case of “MELYLDTANVAEVERLARIFPIAGVTTNPSIIAASKESIWEVLPRLQKAIGDEGILFAQTMSRDAQGMVEEAKRLRDAIPGIVVKIPVTSEGLAAIKILKKEGITTLGTAVYSAAQGLLAALAGAKYVAPYVNRVDAQGGDGIRTVQELQTLLEMHAPESMVLAASFKTPRQALDCLLAGCESITLPLDVAQQMLNTPAVESAIEKFEHDWNAAFGTTHL”, the “total protein half-life in vivo” value by setting is: under setting [1], 4.61 ± 1.5 h; under setting [4], 3.3 h; under setting [5], 2.84 h; under setting [6], 2.91 ± 0.4 h; under setting [7], 3.9 ± 0.8 h; under setting [8], 9.6 ± 0.48 h. Moreover, the “total protein half-life in vivo” value reads like this: under setting [11], 5.37 h; under setting [12], 9.74 ± 0.17 h.
For “MTARYIAIDWGSTNLRAWLYQGDHCLESRQSEAGVTRLNGKSPAAVLAEVTTDWREEKTPVVMAGMVGSNVGWKVAPYLSVPACFSSIGEQLTSVGDNIWIIPGLCVSHDDNHNVMRGEETQLIGARALAPSSLYVMPGTHCKWVQADSQQINDFRTVMTGELHHLLLNHSLIGAGLPPQENSADAFTAGLERGLNTPAILPQLFEVRASHVLGTLPREQVSEFLSGLLIGAEVASMRDYVAHQHAITLVAGTSLTARYQQAFQAMGCDVTAVAGDTAFQAGIRSIAHAVAN”, the “total protein half-life in vivo” value reads like this: under setting [6], 3.12 ± 0.4 h; under setting [11], 4.75 h; under setting [12], 7.85 h.
“MLHTANPVIKHKAGLLNLAEELSNVSKACKIMGVSRDTFYRYRELVAEGGVDAQINRSRRAPNLKNRTDEATEQAVVDYAVAFPTHGQHRASNELRKQGVFISDSGVRSVWLLHNLENLKRRY”: the “total protein half-life in vivo” value under setting [1] was 5.09 ± 0.95 h.
Take “MKRAFIMVLDSFGIGATEDAERFGDVGADTLGHIAEACAKGEADNGRKGPLNLPNLTRLGLAKAHEGSTGFIPAGMDGNAEVIGAYAWAHEMSSGKDTPSGHWEIAGVPVLFEWGYFSDHENSFPQELLDKLVERANLPGYLGNCHSSGTVILDQLGEEHMKTGKPIFYTSADSVFQIACHEETFGLDKLYELCEIAREELTNGGYNIGRVIARPFIGDKAGNFQRTGNRHDLAVEPPAPTVLQKLVDEKHGQVVSVGKIADIYANCGITKKVKATGLDALFDATIKEMKEAGDNTIVFTNFVDFDSSWGHRRDVAGYAAGLELFDRRLPELMSLLRDDDILILTADHGCDPTWTGTDHTREHIPVLVYGPKVKPGSLGHRETFADIGQTLAKYFGTSDMEYGKAMF [P0A6K6]”: the “total protein half-life in vivo” value reads like this: under setting [1], 4.63 ± 0.33 h; under setting [2], 4.5 ± 0.27 h; under setting [3], 4.39 ± 0.2 h; under setting [4], 4.1 ± 0.049 h; under setting [5], 3.41 ± 0.21 h; under setting [6], 2.41 ± 0.5 h. Also, the “total protein half-life in vivo” value was determined as 4.68 ± 0.54 h under setting [7]; 9 ± 0.31 h under setting [8]; 4 ± 0.39 h under setting [9]; 6.61 ± 0.31 h under setting [10]; 3.91 ± 0.25 h under setting [11]; 7.26 ± 0.64 h under setting [12].
